Laboratory results from patent publication US20220064279A1 (AstraZeneca / MedImmune, published 2022).

Target: endogenous LIF of U-251 glioma cells (human, UniProt P15018 23-202)
Test: cell-based or functional assay

Chain of endogenous LIF of U-251 glioma cells (P15018 23-202 limits assumed): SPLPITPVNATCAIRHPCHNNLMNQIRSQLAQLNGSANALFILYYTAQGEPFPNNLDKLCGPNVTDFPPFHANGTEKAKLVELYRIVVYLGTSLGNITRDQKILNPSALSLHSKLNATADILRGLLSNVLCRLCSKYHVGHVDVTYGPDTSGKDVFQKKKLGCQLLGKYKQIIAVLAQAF

IC50 for biological inhibition (pSTAT3, MSD assay, serum starved U-251 cells): 490 picomolar
B1: h5D8 (humanized 5D8, H2L2) (antibody, V domains shown)
VH: QVQLQESGGGLVKPGGSLRLSCAASGFTFSHAWMHWVRQAPGKGLEWVGQIKAKSDDYATYYAESVKGRFTISRDDSKNTLYLQMNSLKTEDTAVYYCTCWEWDLDFWGQGTMVTVSS
VL: DIVMTQTPLSSPVTLGQPASISCRSSQSLLDSDGHTYLNWLQQRPGQPPRLLIYSVSNLESGVPDRFSGSGAGTDFTLKISRVEAEDVGVYYCMQATHAPPYTFGQGTKLEIK
